According to patent US20220024981A1 (Novartis, published 2022):
Bridge positions count the residues as written; N and C are the ends. Square brackets hold non-standard residues; d marks the D form. Phe(3,4-Cl2) = N[C@@H](Cc1ccc(Cl)c(Cl)c1)C(=O)O; Phe(4-CF3) = N[C@@H](Cc1ccc(C(F)(F)F)cc1)C(=O)O; Bip = N[C@@H](Cc1ccc(-c2ccccc2)cc1)C(=O)O; Phe(3-F) = N[C@@H](Cc1cccc(F)c1)C(=O)O; NMeF = CN[C@@H](Cc1ccccc1)C(=O)O; NMeE = CN[C@@H](CCC(=O)O)C(=O)O; NMeA = CN[C@@H](C)C(=O)O

Biological target: T1, Human PCSK9 Alexa Fluor 647 (human, UniProt Q8NBP7 31-692, limits assumed, Alexa Fluor 647 label (site not stated))
T1 construct: Labelled tracer of the TR-FRET assay, 16 nM stock; also called proprotein convertase subtilisin/kexin type 9
T1 sequence (Q8NBP7 31-692 limits assumed): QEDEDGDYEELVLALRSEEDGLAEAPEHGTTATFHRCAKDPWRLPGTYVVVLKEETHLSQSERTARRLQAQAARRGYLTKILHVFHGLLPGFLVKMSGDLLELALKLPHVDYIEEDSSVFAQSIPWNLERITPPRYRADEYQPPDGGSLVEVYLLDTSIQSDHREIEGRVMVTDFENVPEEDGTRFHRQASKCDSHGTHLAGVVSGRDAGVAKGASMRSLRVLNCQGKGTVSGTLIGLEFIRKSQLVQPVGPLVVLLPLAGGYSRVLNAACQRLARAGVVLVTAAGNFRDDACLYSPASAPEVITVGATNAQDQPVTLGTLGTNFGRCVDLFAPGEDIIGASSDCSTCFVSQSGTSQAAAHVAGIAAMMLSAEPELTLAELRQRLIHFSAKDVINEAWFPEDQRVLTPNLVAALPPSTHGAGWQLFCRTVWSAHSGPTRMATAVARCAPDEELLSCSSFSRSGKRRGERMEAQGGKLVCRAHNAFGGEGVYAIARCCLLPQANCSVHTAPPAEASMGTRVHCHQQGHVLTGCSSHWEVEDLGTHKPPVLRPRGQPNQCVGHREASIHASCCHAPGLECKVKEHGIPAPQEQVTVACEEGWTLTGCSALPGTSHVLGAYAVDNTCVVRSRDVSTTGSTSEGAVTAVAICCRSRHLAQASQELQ
Experiment: TR-FRET competition: PCSK9-Alexa Fluor 647 vs LDLR ECD-Eu kryptate
Method: A Proxi plate-low volume assay plate was used for the assay. […] Following a 30 minute incubation, 5 uL of 4 nM Human LDLR extracellular domain-Europium Kryptate was added and the mixture was incubated for an additional 2 hours.
The TR-FRET signal was measured on an EnVision or PheraStar instrument with a 60 μs delay, 330 nm excitation and 665 nm emission (FRET), and 330 nm excitation and 615 nm (Europium). The FRET ratio (FRET/Europium) was used for calculations.

| Binder | IC50 | Maximum % inhibition |
| --- | --- | --- |
| FVSTTXAXADSPCG (not fully specified; N-terminal acetyl (Ac*) joined by a sulfide bond to the side chain of Cys13 (cyclic); 6: L-Bip; 7: L-(N-Me)Ala; 8: L-Bip; 9: L-(N-Me)Ala; C-terminal amide (NH2), also called 1-8; Ex. No. 1-8) [Ac*-F-V-S-T-T-B-(N-Me)A-B-(N-Me)A-D-S-P-C*-G-NH2] | 2.3 nM | 58% |
| FVSTTXAXAPSPCG (not fully specified; N-terminal acetyl (Ac*) joined by a sulfide bond to the side chain of Cys13 (cyclic); 6: L-Bip; 7: L-(N-Me)Ala; 8: L-Bip; 9: L-(N-Me)Ala; C-terminal amide (NH2), also called 1-20; Ex. No. 1-20) [Ac*-F-V-S-T-T-B-(N-Me)A-B-(N-Me)A-P-S-P-C*-G-NH2] | 8.1 nM | 35% |
| FVSTTXFXAESPCG (not fully specified; N-terminal acetyl (Ac*) joined by a sulfide bond to the side chain of Cys13 (cyclic); 6: L-Bip; 7: L-(N-Me)Phe; 8: L-Bip; 9: L-(N-Me)Ala; C-terminal amide (NH2), also called 1-13; Ex. No. 1-13) [Ac*-F-V-S-T-T-B-(N-Me)F-B-(N-Me)A-E-S-P-C*-G-NH2] | 7.8 nM | 86% |
| {CH2CO}-FVDTT[Bip][NMeA][Bip][NMeA]ESPCG-NH2 (thioether N-13; SMILES CC(C)[C@@H]1NC(=O)[C@H](Cc2ccccc2)NC(=O)CSC[C@@H](C(=O)NCC(N)=O)NC(=O)[C@@H]2CCCN2C(=O)[C@H](CO)NC(=O)[C@H](CCC(=O)O)NC(=O)[C@H](C)N(C)C(=O)[C@H](Cc2ccc(-c3ccccc3)cc2)NC(=O)[C@H](C)N(C)C(=O)[C@H](Cc2ccc(-c3ccccc3)cc2)NC(=O)[C@H]([C@@H](C)O)NC(=O)[C@H]([C@@H](C)O)NC(=O)[C@H](CC(=O)O)NC1=O, also called 1-10; Ex. No. 1-10) [Ac*-F-V-D-T-T-B-(N-Me)A-B-(N-Me)A-E-S-P-C*-G-NH2] | 6 nM | 90% |
| {CH2CO}-FVSTT[Bip][NMeA][Phe(3-F)][NMeA]DRPCG-NH2 (thioether N-13; SMILES CC(C)[C@@H]1NC(=O)[C@H](Cc2ccccc2)NC(=O)CSC[C@@H](C(=O)NCC(N)=O)NC(=O)[C@@H]2CCCN2C(=O)[C@H](CCCNC(=N)N)NC(=O)[C@H](CC(=O)O)NC(=O)[C@H](C)N(C)C(=O)[C@H](Cc2cccc(F)c2)NC(=O)[C@H](C)N(C)C(=O)[C@H](Cc2ccc(-c3ccccc3)cc2)NC(=O)[C@H]([C@@H](C)O)NC(=O)[C@H]([C@@H](C)O)NC(=O)[C@H](CO)NC1=O, also called 1-15; Ex. No. 1-15) [Ac*-F-V-S-T-T-B-(N-Me)A-(3-F)F-(N-Me)A-D-R-P-C*-G-NH2] | 12 nM | 53% |
| {CH2CO}-FVSTT[Phe(4-CF3)][NMeA][Phe(4-CF3)][NMeA]ERPCG-NH2 (thioether N-13; SMILES CC(C)[C@@H]1NC(=O)[C@H](Cc2ccccc2)NC(=O)CSC[C@@H](C(=O)NCC(N)=O)NC(=O)[C@@H]2CCCN2C(=O)[C@H](CCCNC(=N)N)NC(=O)[C@H](CCC(=O)O)NC(=O)[C@H](C)N(C)C(=O)[C@H](Cc2ccc(C(F)(F)F)cc2)NC(=O)[C@H](C)N(C)C(=O)[C@H](Cc2ccc(C(F)(F)F)cc2)NC(=O)[C@H]([C@@H](C)O)NC(=O)[C@H]([C@@H](C)O)NC(=O)[C@H](CO)NC1=O, also called 1-11; Ex. No. 1-11) [Ac*-F-V-S-T-T-(p-CF3)F-(N-Me)A-(p-CF3)F-(N-Me)A-E-R-P-C*-G-NH2] | 3.6 nM | 55% |
| {CH2CO}-FVPTT[Bip][NMeA][Bip][NMeA]DRPCG-NH2 (thioether N-13; SMILES CC(C)[C@@H]1NC(=O)[C@H](Cc2ccccc2)NC(=O)CSC[C@@H](C(=O)NCC(N)=O)NC(=O)[C@@H]2CCCN2C(=O)[C@H](CCCNC(=N)N)NC(=O)[C@H](CC(=O)O)NC(=O)[C@H](C)N(C)C(=O)[C@H](Cc2ccc(-c3ccccc3)cc2)NC(=O)[C@H](C)N(C)C(=O)[C@H](Cc2ccc(-c3ccccc3)cc2)NC(=O)[C@H]([C@@H](C)O)NC(=O)[C@H]([C@@H](C)O)NC(=O)[C@@H]2CCCN2C1=O, also called 1-19; Ex. No. 1-19) [Ac*-F-V-P-T-T-B-(N-Me)A-B-(N-Me)A-D-R-P-C*-G-NH2] | 2.7 nM | 38% |
| {CH2CO}-FVDTTS[NMeF][Bip][NMeA]ESPCG-NH2 (thioether N-13; SMILES CC(C)[C@@H]1NC(=O)[C@H](Cc2ccccc2)NC(=O)CSC[C@@H](C(=O)NCC(N)=O)NC(=O)[C@@H]2CCCN2C(=O)[C@H](CO)NC(=O)[C@H](CCC(=O)O)NC(=O)[C@H](C)N(C)C(=O)[C@H](Cc2ccc(-c3ccccc3)cc2)NC(=O)[C@H](Cc2ccccc2)N(C)C(=O)[C@H](CO)NC(=O)[C@H]([C@@H](C)O)NC(=O)[C@H]([C@@H](C)O)NC(=O)[C@H](CC(=O)O)NC1=O, also called 1-5; Ex. No. 1-5) [Ac*-F-V-D-T-T-S-(N-Me)F-B-(N-Me)A-E-S-P-C*-G-NH2] | 35 nM | 95% |
| {CH2CO}-FVDTTS[NMeF][Bip][NMeA]NSPCG-NH2 (thioether N-13; SMILES CC(C)[C@@H]1NC(=O)[C@H](Cc2ccccc2)NC(=O)CSC[C@@H](C(=O)NCC(N)=O)NC(=O)[C@@H]2CCCN2C(=O)[C@H](CO)NC(=O)[C@H](CC(N)=O)NC(=O)[C@H](C)N(C)C(=O)[C@H](Cc2ccc(-c3ccccc3)cc2)NC(=O)[C@H](Cc2ccccc2)N(C)C(=O)[C@H](CO)NC(=O)[C@H]([C@@H](C)O)NC(=O)[C@H]([C@@H](C)O)NC(=O)[C@H](CC(=O)O)NC1=O, also called 1-3; Ex. No. 1-3) [Ac*-F-V-D-T-T-S-(N-Me)F-B-(N-Me)A-N-S-P-C*-G-NH2] | 2.1 nM | 55% |
| {CH2CO}-FVDTTS[NMeF][Phe(4-CF3)][NMeA]ESPCG-NH2 (thioether N-13; SMILES CC(C)[C@@H]1NC(=O)[C@H](Cc2ccccc2)NC(=O)CSC[C@@H](C(=O)NCC(N)=O)NC(=O)[C@@H]2CCCN2C(=O)[C@H](CO)NC(=O)[C@H](CCC(=O)O)NC(=O)[C@H](C)N(C)C(=O)[C@H](Cc2ccc(C(F)(F)F)cc2)NC(=O)[C@H](Cc2ccccc2)N(C)C(=O)[C@H](CO)NC(=O)[C@H]([C@@H](C)O)NC(=O)[C@H]([C@@H](C)O)NC(=O)[C@H](CC(=O)O)NC1=O, also called 1-6; Ex. No. 1-6) [Ac*-F-V-D-T-T-S-(N-Me)F-(p-CF3)F-(N-Me)A-E-S-P-C*-G-NH2] | 12 nM | 97% |
| {CH2CO}-FVDSTY[NMeA][Bip][NMeA]NHPCG-NH2 (thioether N-13; SMILES CC(C)[C@@H]1NC(=O)[C@H](Cc2ccccc2)NC(=O)CSC[C@@H](C(=O)NCC(N)=O)NC(=O)[C@@H]2CCCN2C(=O)[C@H](Cc2c[nH]cn2)NC(=O)[C@H](CC(N)=O)NC(=O)[C@H](C)N(C)C(=O)[C@H](Cc2ccc(-c3ccccc3)cc2)NC(=O)[C@H](C)N(C)C(=O)[C@H](Cc2ccc(O)cc2)NC(=O)[C@H]([C@@H](C)O)NC(=O)[C@H](CO)NC(=O)[C@H](CC(=O)O)NC1=O, also called 1-4; Ex. No. 1-4) [Ac*-F-V-D-S-T-Y-(N-Me)A-B-(N-Me)A-N-H-P-C*-G-NH2] | 4 nM | 60% |

Further binders by falling IC50, results first:

| IC50 | Maximum % inhibition | Binder |
| --- | --- | --- |
| 410 nM | 60% | {CH2CO}-FVDTTS[NMeA][Bip][NMeA]KSPCG-NH2 (thioether N-13; SMILES CC(C)[C@@H]1NC(=O)[C@H](Cc2ccccc2)NC(=O)CSC[C@@H](C(=O)NCC(N)=O)NC(=O)[C@@H]2CCCN2C(=O)[C@H](CO)NC(=O)[C@H](CCCCN)NC(=O)[C@H](C)N(C)C(=O)[C@H](Cc2ccc(-c3ccccc3)cc2)NC(=O)[C@H](C)N(C)C(=O)[C@H](CO)NC(=O)[C@H]([C@@H](C)O)NC(=O)[C@H]([C@@H](C)O)NC(=O)[C@H](CC(=O)O)NC1=O, also called 1-7; Ex. No. 1-7) [Ac*-F-V-D-T-T-S-(N-Me)A-B-(N-Me)A-K-S-P-C*-G-NH2] |
| 14 nM | 87% | FVSTTSFXAESPCG (not fully specified; N-terminal acetyl (Ac*) joined by a sulfide bond to the side chain of Cys13 (cyclic); 7: L-(N-Me)Phe; 8: L-Bip; 9: L-(N-Me)Ala; C-terminal amide (NH2), also called 1-12; Ex. No. 1-12) [Ac*-F-V-S-T-T-S-(N-Me)F-B-(N-Me)A-E-S-P-C*-G-NH2] |
| 3 nM | 35% | FVSTTSFXADRPCG (not fully specified; N-terminal acetyl (Ac*) joined by a sulfide bond to the side chain of Cys13 (cyclic); 7: L-(N-Me)Phe; 8: L-Bip; 9: L-(N-Me)Ala; C-terminal amide (NH2), also called 1-9; Ex. No. 1-9) [Ac*-F-V-S-T-T-S-(N-Me)F-B-(N-Me)A-D-R-P-C*-G-NH2] |
| 2.6 nM | 65% | {CH2CO}-FVDTTS[NMeF][Bip][NMeE]NSPCG-NH2 (thioether N-13; SMILES CC(C)[C@@H]1NC(=O)[C@H](Cc2ccccc2)NC(=O)CSC[C@@H](C(=O)NCC(N)=O)NC(=O)[C@@H]2CCCN2C(=O)[C@H](CO)NC(=O)[C@H](CC(N)=O)NC(=O)[C@H](CCC(=O)O)N(C)C(=O)[C@H](Cc2ccc(-c3ccccc3)cc2)NC(=O)[C@H](Cc2ccccc2)N(C)C(=O)[C@H](CO)NC(=O)[C@H]([C@@H](C)O)NC(=O)[C@H]([C@@H](C)O)NC(=O)[C@H](CC(=O)O)NC1=O, also called 1-1; Ex. No. 1-1) [Ac*-F-V-D-T-T-S-(N-Me)F-B-(N-Me)E-N-S-P-C*-G-NH2] |
| 2.5 nM | 68% | FVSTTXAXAESPCG (not fully specified; N-terminal acetyl (Ac*) joined by a sulfide bond to the side chain of Cys13 (cyclic); 6: L-Bip; 7: L-(N-Me)Ala; 8: L-Bip; 9: L-(N-Me)Ala; C-terminal amide (NH2), also called 1-25; Ex. No. 1-25) [Ac*-F-V-S-T-T-B-(N-Me)A-B-(N-Me)A-E-S-P-C*-G-NH2] |
| 2.4 nM | 84% | {CH2CO}-FVDTT[Bip][NMeA][Phe(3,4-Cl2)][NMeA]ESPCG-NH2 (thioether N-13; SMILES CC(C)[C@@H]1NC(=O)[C@H](Cc2ccccc2)NC(=O)CSC[C@@H](C(=O)NCC(N)=O)NC(=O)[C@@H]2CCCN2C(=O)[C@H](CO)NC(=O)[C@H](CCC(=O)O)NC(=O)[C@H](C)N(C)C(=O)[C@H](Cc2ccc(Cl)c(Cl)c2)NC(=O)[C@H](C)N(C)C(=O)[C@H](Cc2ccc(-c3ccccc3)cc2)NC(=O)[C@H]([C@@H](C)O)NC(=O)[C@H]([C@@H](C)O)NC(=O)[C@H](CC(=O)O)NC1=O, also called 1-26; Ex. No. 1-26) [Ac*-F-V-D-T-T-B-(N-Me)A-(3,4-diCl)F-(N-Me)A-E-S-P-C*-G-NH2] |
| 1.3 nM | – | {CH2CO}-FVSTT[Bip][NMeA][Bip][NMeA]DRPCG-NH2 (thioether N-13, also called 1-2; Ex. No. 1-2) [Ac*-F-V-S-T-T-B-(N-Me)A-B-(N-Me)A-D-R-P-C*-G-NH2] |
| 1.2 nM | 49% | {CH2CO}-FVSTT[Bip][NMeA][Phe(3,4-Cl2)][NMeA]DRPCG-NH2 (thioether N-13; SMILES CC(C)[C@@H]1NC(=O)[C@H](Cc2ccccc2)NC(=O)CSC[C@@H](C(=O)NCC(N)=O)NC(=O)[C@@H]2CCCN2C(=O)[C@H](CCCNC(=N)N)NC(=O)[C@H](CC(=O)O)NC(=O)[C@H](C)N(C)C(=O)[C@H](Cc2ccc(Cl)c(Cl)c2)NC(=O)[C@H](C)N(C)C(=O)[C@H](Cc2ccc(-c3ccccc3)cc2)NC(=O)[C@H]([C@@H](C)O)NC(=O)[C@H]([C@@H](C)O)NC(=O)[C@H](CO)NC1=O, also called 1-14; Ex. No. 1-14) [Ac*-F-V-S-T-T-B-(N-Me)A-(3,4-diCl)F-(N-Me)A-D-R-P-C*-G-NH2] |
